Measurements taken from patent US20100272734A1 (Novartis, published 2010).

T1: human Activin RIB (ALK-4)/Fc (human, UniProt P36896 24-126)
T1 construct: Bought counter-target
T1 sequence (looked up): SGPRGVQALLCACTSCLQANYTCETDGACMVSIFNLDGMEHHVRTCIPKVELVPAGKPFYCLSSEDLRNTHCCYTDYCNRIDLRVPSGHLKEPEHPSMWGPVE

T2: mouse TGF-βRI (ALK-5)/Fc (mouse, UniProt Q64729 30-125, limits assumed)
T2 construct: Bought counter-target
T2 sequence (looked up): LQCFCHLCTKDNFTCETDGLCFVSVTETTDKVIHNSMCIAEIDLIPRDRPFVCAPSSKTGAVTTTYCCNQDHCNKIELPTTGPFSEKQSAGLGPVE


How the values were obtained:
[1] = molecular target: endogenous human ActRIIB on cells (human) (UniProt Q13705); assay: cell-based or functional assay
human TGF-βRII/Fc = molecular target: T3, human TGF-βRII/Fc (human, UniProt P37173 24-159); assay: specificity ELISA on coated recombinant protein
T3 construct: Bought counter-target
Description: (§1) The specificity of anti-ActRIIB Fab antibodies to human ActRIIB and crossreactivity to human ActRIIA and mouse ActRIIB is evaluated in an ELISA setting. Additionally, binding to related receptors (counter-targets: human TGF-βRII/Fc (R&D systems), mouse TGF-βRI (ALK-5)/Fc (R&D systems), human Activin RIB (ALK-4)/Fc (R&D systems)) is determined. For this 5 μg/ml (if not stated otherwise) of the recombinant proteins diluted in PBS are added to a black 96-well flat-bottom MaxiSorp™ plate and incubated over night at 4° C. for coating.
(§2) The next morning, the plates are washed with TBST and blocked with MTBST. After washing the plates several times, 5 μg/ml anti-ActRIIB Fab are added and incubated for 2.5 hrs. Subsequently antigen bound Fabs are detected by incubation with alkaline phosphatase conjugated goat-anti-human IgG Fab-specific, followed by addition of AttoPhos fluorescence substrate.

[2] = molecular target: T1, human Activin RIB (ALK-4)/Fc; assay: specificity ELISA on coated recombinant protein
Description: as §1, §2

mouse TGF-βRI (ALK-5)/Fc = molecular target: T2, mouse TGF-βRI (ALK-5)/Fc; assay: specificity ELISA on coated recombinant protein
Description: as §1, §2

Chain of endogenous human ActRIIB on cells (human) (Q13705 19-512 E459A limits assumed): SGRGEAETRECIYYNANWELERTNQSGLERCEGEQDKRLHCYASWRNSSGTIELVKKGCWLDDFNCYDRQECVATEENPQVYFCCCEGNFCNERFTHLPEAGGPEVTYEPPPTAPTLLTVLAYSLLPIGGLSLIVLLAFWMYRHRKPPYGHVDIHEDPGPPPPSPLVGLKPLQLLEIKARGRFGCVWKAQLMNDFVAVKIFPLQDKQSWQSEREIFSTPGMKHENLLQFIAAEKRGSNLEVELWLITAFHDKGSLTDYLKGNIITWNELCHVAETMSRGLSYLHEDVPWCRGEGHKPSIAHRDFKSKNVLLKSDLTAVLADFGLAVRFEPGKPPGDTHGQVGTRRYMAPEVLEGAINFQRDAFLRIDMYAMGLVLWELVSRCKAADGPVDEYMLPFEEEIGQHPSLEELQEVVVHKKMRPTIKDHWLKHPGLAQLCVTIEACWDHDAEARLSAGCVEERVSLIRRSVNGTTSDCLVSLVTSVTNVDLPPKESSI
T3 sequence (P37173 24-159 limits assumed): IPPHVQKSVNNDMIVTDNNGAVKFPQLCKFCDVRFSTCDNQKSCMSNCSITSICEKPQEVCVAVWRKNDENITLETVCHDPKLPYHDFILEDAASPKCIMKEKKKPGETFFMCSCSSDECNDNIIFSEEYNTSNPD

Emax of ligand-induced inhibition of skeletal muscle differentiation in the presence of MOR08159 (10 µg/ml) [1] [% control] | Emax of ligand-induced inhibition of skeletal muscle differentiation in the presence of MOR08213 (10 µg/ml) [1] [% control] | Emax of ligand-induced inhibition of skeletal muscle differentiation, no Ab [1] [% control] | IC50 of ligand-induced inhibition of skeletal muscle differentiation in the presence of MOR08159 (10 µg/ml) [1] [µg/mL] | IC50 of ligand-induced inhibition of skeletal muscle differentiation in the presence of MOR08213 (10 µg/ml) [1] [µg/mL] | IC50 of ligand-induced inhibition of skeletal muscle differentiation, no Ab [1] [µg/mL] | binding result (human TGF-βRII/Fc) | binding result [2] | binding result (mouse TGF-βRI (ALK-5)/Fc) | Binder
61.9 | 57.2 | 37.1 | 0.0347 | 0.0419 | 0.0147 |  |  |  | Activin A (ligand, UniProt P08476 311-426, looked up) GLECDGKVNICCKKQFFVSFKDIGWNDWIIAPSGYHANYCEGECPSHIAGTSGSSLSFHSTVINHYRMRGHSPFANLKSCCVPTKLRPMSMLYYDDGQNIIKKDIQNMIVEECGCS
22.1 | 27.1 | 23.2 | 0.0133 | 0.012 | 0.007 |  |  |  | GDF-11 (ligand, UniProt O95390 299-407, looked up) NLGLDCDEHSSESRCCRYPLTVDFEAFGWDWIIAPKRYKANYCSGQCEYMFMQKYPHTHLVQQANPRGSAGPCCTPTKMSPINMLYFNDKQQIIYGKIPGMVVDRCGCS
 |  |  |  |  |  | no binding (tested: 5 µg/ml Fab) | no binding (tested: 5 µg/ml Fab) | no binding (tested: 5 µg/ml Fab) | MOR07079 Fab (Fab, V domains shown, Parental HuCAL GOLD Fab (Fab-FH format from pMORPH X9_FH vector); also called MOR7079; Fab-FH) VH: QVQLVQSGAEVKKPGASVKVSCKASGYTFTSSYINWVRQAPGQGLEWMGTINPVSGNTSYAQKFQGRVTMTRDTSISTAYMELSSLRSEDTAVYYCARGGWFDYWGQGTLVTVSS VL: DIALTQPASVSGSPGQSITISCTGTSSDVGSYNYVNWYQQHPGKAPKLMIYGVSKRPSGVSNRFSGSKSGNTASLTISGLQAEDEADYYCQAWTSKMAGVFGGGTKLTVL
